Experiment: soluble fraction after stress (log2 fold change); higher = more stays soluble; pooled small domains, quantitative proteomics
Conditions: stress: 50 degC
Method in brief: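 The stress applied to every library was 50°C. These custom libraries of small protein domains were pooled and measured at high throughput with quantitative proteomics as the read-out. Aggregation propensity is expressed as the base-two logarithm of the fold change in how much of each protein remains soluble. The higher the value, the more of that protein stays in solution.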

Sequence	soluble fraction (log2)
HMAQTEIIRVTKDIKKGDAITADKFEKVKVGAYNLPGNVVKNADELKGKFAAADLVRGDYILTSKLTDNP	0.146
HMIAASQVLRDARQRSRLTQAELGRRADVPQSVISAYESARREPSVDMLARLVAAAGFDLRIGLTP	-0.541
HMNIDNTWQPSEDVVEILTRSGINEDFINELIPEFIVYWTERPGTLVSYNSKFIEHVRLKWAQHSAEI	0.0597
HMPTSPKANFLKELPQEFTRKQAVTIGDKLNIKERTVDNYLAKLEQAGYLVKPKAGYYQKIKS	0.128
HMQLEPLVTSVIPVNFAKASDISGTIKGKEVGLLSERGNITAENRTNVLIVKDIRKSVDEINAMVKRLD	-0.0183
HMKKKLPRYLQEQKYGNGMVFYRYNPTARYIDEGIVTRTNLGSDLSIAKKKANEFNKLIDAFLQQQSE	-0.92
HMNMNDIKFGKYLKRVRKKYNFSKEYVANILKVKESLVSDWESGRLTLNDEYMEKLSLFYGVNLYKK	-0.863
HMTASSYMGMQLGRLEELLKKEVLSLSEKTELKDLISDFDKIPEVVSPKIIGRYLQLKNQHFAKINA	-0.0763
HMTRIHEEVVNQVHDLVKEGRFKAGDQLPSERELAEIFKVSRTSVREALRALETQGLIISRTGMGNFIAD	-0.0448
HMVAGGTVSRKLSIETGLPKRKSLIGSWLDQNSVWHNIISVRHRNGYGDGVNYGFYLRSLLTSEGNLAW	-0.114
HMEVSLEDKMDYLTNYATTHKNFSFRNLLESSSGKIEVIVTFLAILELMKMGRINISQEHIFDDIIIESRI	-2.53
HMVMVVDVLKALSNNSSDKFFNTSISNAIKAQEDSQEDFVTLFGIEYEKLSPNNGLAVIFTSQ	0.425
HMSETQDQTTIEIEDMITVGTLAERLSIPVSTLIGELMKNGVMATVNEKIDFDTAQIIVGELKLPIELSKK	0.201
HMSMFTPAQVAQTLTVPPSTLRRWAKRFAPFLSPQSGKKRTYTVADLDTFQRIKELSAQGYTFAQIDQAL	-0.738
HMNMANFARIRLILELHDRGMSQDEISRSRHMSRSTITTVLRTARKKGITYAGIRKLDDAALQKLFFPDR	-3.88
HMKISDLPAAQVYREIVHAWPKAAAYADLAPINNGGMQRWRDVVHEWVLRGYNPANLRGMLEWYKAGIPTR	-0.398
HMGQAAHYEGVKGDGESDTDVISRVLTAAGAEAQKDDIFVVKELIAGGKYSYTAYVYDGSVWAAM	-0.266
HMYGSLGEYELAAVQWIYGKGKITTRELSSLIGKGLTLSSKTLRGLAAKGILEWHGNSKNDPSQFYSLP	-2.39
HMSNYIVELSSSEKIDDIDNNNNLINSFFSKSDSQWEYKLVFKNKNEMDVFVKKISTNNKIISYKTSS	0.149

Sequence	soluble fraction (log2)
HMDYKSNLQEMVQTTKKSVTYELVKEEGPAHDRTFTMNVIVDGIVLGTGTAKSKKEAEQEAAHQALEKKA	-0.0398
HMGKTIIQLATDYLIKNMQPKSLHDIESYVLTRKKIKKSSIGAILLSKPNIFGRTEDGLFGLRIWNNFQYT	-0.738
HMSMLSQERQSLILDIIKEQGSVTVTRLTEILQSSESTVRRDLSYLASKGKINKVHGGATALG	-0.206
HMSDSLVLTGVAYVDGKPVVTLFDKVKKESLVVTDQPNLKGWTLVEATQSSDIKRATAKVNIGGEPVSIRY	0.117
HMITSELALVKLVVKGANRVEALRVAETFRARALDVTLSSFVFELTGKPSKLDAFIGLMRSLGDTEILKR	-4.06
HMSQLYINATDDGWVIGNLPADAREVLLTTLGGQVVARYHVTAPSLRVKAPRKGVYIVSVETA	-1.12
HMDLKHNQITMRELLRNKQAYLLLYKEFPMFMTPAILQNIRPLTLQQIIQMVRPYISRPKLNMLLEQLENI	-0.124
HMGSKQVSVPDVRNLDYERASQQLREAGFVVGDVLRIRDDRAPAGTVIAQSPAAPALVPENARVSLLVSSG	0.251
HMKERLLDPYKDFIVNYLQKYPYTPAAVMHDKLKESYPDFPKVDPKTIYNFVMLLRRDFNIPKV	-0.306
HMYNNDEIEKIQTMYNAIYQLNDIEKALIMLFLEDKSYKEIAEIMGISEGNARIKMMRTKDKLKNLISKN	-0.369
HMIALLRLGTAPDIKAQAPLATILARHNGEMSAKDLWQRFGGEIDTFYAQLKTEVAHGWILEPT	-0.617
HMFSQDQIFLRSGEKIDARVIEVTPEFIKYKSKANPEGPLYSKKITDVLLITYANGTTEVYE	-0.00684
HMAPSLSEYAYEEIKHAIERGVYPPGAKLITQEIADRLGISRTPVVAAVNRLTAEGYADAVPQHGIFVK	0.0573
HMAENTKKWDETGRRYRSYIKLEKRLSENTVESYMRDYMQFAHFILRQWDVAPHKVEPQMVERYMAWLYER	-0.00858
HMSWAAQVVDKMTNDQLIKSLNEIVNTGKQLGLDITVEQNGDKNFIMTVKDSKGNVQLVTPIG	-0.0133
HMLFQGDTPAENIILEILSKNGTTASDSIIKQSGLSVSDFNQAATMLEIKGLISNNGGNIWSL	0.0636
HMVEYFDDENLDAFIGRESDSYTEKEIEQFREILYTMNQKEVADWNRSLTIRGINIPNDLKDEMIMMI	-0.438
HMGQELTMPDLKSMSRSNAEEKLKKMGLKLGAVFEENAKEPAGTVINQDPRSGSKITKGQTVDITVSLGEK	0.131
HMENWMPNLVNQDKRLAINTLRELGFTEEAGNLVIREETSEDVTKDYVISTDPVAETDLADVEKVTLVVSS	0.0767

Reference: the domain aggregation screens of Martell et al. (2025)
